The test system of experiment [1] is STZ-induced diabetic mice. In words: Recombinant Plac9 in streptozotocin (STZ)-induced insulin-deficient diabetic mouse model, biometric data and glucose tolerance test. The experiment is classed as in vivo, C57BL/6J mice. The protocol: Turning to FIG. 3A, 8-week-old male C57BL/6J mice (n=8) which were fed with standard chow (STC) diet were treated with streptozotocin (STZ) for 5 days to induce diabetes. Similar to Example 1, 2 mg/kg (BW) of recombinant mPLAC9 was administered to the STZ-induced diabetic mice via i.p. injection once daily for 18 days (treatment group). In parallel, PBS was injected to STZ-induced diabetic mice for 18 days as a control group.
GTT was also performed at Day 5 and Day 15 in this STZ-induced diabetic model. […] Similar trend was observed between the treatment and control groups at Day 15 (FIGS. 3H-3I).

In experiment [2] the test system is primary hepatocytes. In words: Glucose uptake assay (2DG6P) in primary hepatocytes. The experiment is classed as cell-based. The protocol:
(§1) To verify that the glucose homeostasis is regulated through liver or hepatocytes by overexpression of Plac9 in an insulin-independent manner, an in vitro insulin secretion assay was performed on confluent pancreatic beta cells, MIN6, in each well treated by […] of Exendin-4 or different concentrations of recombinant Plac9 of mouse origin at 10, 100 and 1000 nM (n=8) and measured the insulin content of each well by a mouse insulin ELISA kit. […] A glucose uptake assay was performed on primary hepatocytes and hepatic cell line, HepG2, treated with different concentrations (from 0.125 or 0.25 to 1.0 μM) in the presence or absence of exogenous 10 nM insulin, and the results are shown in FIGS. 5B and 5C, respectively.

Experiment [3] deals with MIN6 pancreatic beta cells. The experiment in a line: Glucose stimulated insulin secretion assay in MIN6 cells (mouse insulin ELISA). The note with it: 10, 100 and 1000 nM, n=8; FIG. 5A. The experiment is classed as cell-based. The protocol: as §1
For orientation: An ELISA detects its analyte on a solid surface through an enzyme-linked reagent.

Experiment [4] deals with HFD-fed obese mice. In words: Recombinant Plac9 in high-fat diet (HFD)-induced obese, diabetic (DM2) mouse model, biometric data and glucose tolerance test. The experiment is classed as in vivo, C57BL/6J mice. The note with it: vs PBS control. The protocol: Turning to FIG. 2A, 8-week-old male C57BL/6J mice (n=8) were fed with a high-fat diet (HFD) for 12 weeks to induce a diabetes mellitus type 2 (DM2) model and then treated with 2 mg/kg (per body weight; hereinafter as “BW”) of recombinant mouse Plac9 (synthesized and purified from E. coli expressing mouse Plac9 represented by SEQ ID NO: 2; hereinafter as “mPLAC9”) once daily via intraperitoneal (i.p.) injection for 18 days to evaluate its effects on glucose uptake and tolerance in an obese, diet-induced diabetic model. Body weight (FIG. 2B), fasting blood glucose level (FIG. 2C), feeding blood glucose level (FIG. 2D) and blood insulin level (FIG. 2E) were measured at the beginning of the i.p. injection and then once every 3 days until the end of the experiment (i.e., Day 3, 6, 9, 12, 15 and 18). Another group of HFD-fed mice was injected with PBS once daily and measured with the same biometric data as in the Plac9-injected group (treatment group) once every 3 days from the beginning of the injection until the end of the experiment.
Glucose tolerance test (GTT) was also performed in both the treatment and control groups at Day 0 and Day 15 of the experiment. […] At Day 15, the overall blood glucose level was also lower in the treatment group than that of the control group over the 90-minute time course (FIGS. 2H-2I).

B1: mPLAC9: recombinant mouse Plac9 synthesized and purified from E. coli expressing mouse Plac9 represented by SEQ ID NO: 2 (protein, listed as Mus musculus)
chain: EWGQGPRDTPGRRAAESPSSPGDLAGSPGCDRHAAVQRRLDIMEETVEKTVEHLEAEVTGLLGLLEELASNLPTGPFSPKPDLLGDDGF
On to B1, for which the “change in body weight” value in experiment [1] (2 mg/kg BW i.p. once daily, 18 days, treatment vs PBS control, FIG. 3B) is “similar”. Besides, the “change in fasting glucose level” value in experiment [1] (2 mg/kg BW i.p. once daily, 18 days, treatment vs PBS control, FIG. 3C) is “similar”. Further, in experiment [1] (2 mg/kg BW i.p. once daily, 18 days, treatment vs PBS control, FIG. 3D), the “change in feeding glucose level” value is reported as “similar”. Further, the “overall blood glucose level in GTT” value in experiment [1] (Day 0, 90-minute time course, vs PBS control, FIGS. 3F-3G) is recorded as “lower”. Moreover, the blood insulin level result in experiment [1] (Day 0 to Day 5, treatment vs PBS control, FIG. 3E) is on record as “similar”. Further, the blood insulin concentration result is listed as “increased” in experiment [1] (from Day 5 till the end of the experiment, no change in control group, FIG. 3E) and “reduced” in experiment [4] (Day 15, 2 mg/kg BW i.p. once daily, FIG. 2E). Also, the “restoration of blood insulin level to the level measured at Day 0” value in experiment [1] (till the end of the experiment, FIG. 3E) is listed as “could not be restored”. Further, the glucose uptake result in experiment [2] (0.125 to 1.0 μM, with or without 10 nM insulin, FIG. 5B) is on record as “enhanced by Plac9 is in a dose-dependent manner”. For the same molecule, in experiment [2] (co-administration with 10 nM insulin, overall statement for liver or hepatocytes (primary hepatocytes and HepG2)), the “glucose uptake on co-administration with insulin” value is “further enhance the glucose uptake”. Further, the insulin secretion result in experiment [3] is reported as “does not induce insulin secretion”. The body weight change result in experiment [4] (2 mg/kg BW i.p. once daily, 18 days, FIG. 2B) is recorded as “no obvious weight change”. The “fasting blood glucose level” value in experiment [4] (2 mg/kg BW i.p. once daily, 18 days, FIG. 2C) is “no obvious changes”. The “feeding blood glucose level” value in experiment [4] (2 mg/kg BW i.p. once daily, 18 days, FIG. 2D) is “no obvious changes”. Moreover, in experiment [4] (Day 0, 90-minute time course, FIGS. 2F-2G), the “blood glucose level in glucose tolerance test (GTT)” value is “more significantly reduced”. Moreover, the “overall blood glucose level in glucose tolerance test (GTT)” value in experiment [4] (Day 15, 90-minute time course, FIGS. 2H-2I) is listed as “lower”.

For the origin of these results see patent publication US20250114431A1, “COMPOUND, COMPOSITION AND METHODS FOR LOWERING CIRCULATING GLUCOSE” (THE HONG KONG POLYTECHNIC UNIVERSITY, priority 2023, published 2025).
